From the supplement of paper PMC10567573

Experiment: protein stability index of a GFP-peptide fusion (GPS, HEK-293T) (PSI 1-6); higher = more stable
Settings: c terminus: native
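Further: lentivirally expressed fusion library, cells FACS-sorted into six equal-sized GFP/DsRed ratio bins, PSI computed from sequencing read fractions per bin weighted by bin number.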

B1: POLD2 addG (peptide)
chain: CQPISFSGFGAEDDDLGGLGLGPG
protein stability index (parent: NP_006221.1): 2.37

B2: SNF8 addG (peptide)
chain: LPALFTDLYSQEITAEEAREALPG
protein stability index (parent: NP_009172.2): 2.8

B3: TRPA1 addG (peptide)
chain: EQRNSRWNTVLRAVKAKTHHLEPG
protein stability index (parent: NP_015628.1): 3.92

B4: PSMB5 addG (peptide)
chain: DGWIRVSSDNVADLHEKYSGSTPG
protein stability index (parent: NP_002788.1): 3
